Assay in all cases: cell-based or functional assay
Assay [1] deals with HIV envelope protein (env, gp160/gp120) of HIV strain IIIB on infected cells and virus (HIV strain IIIB) (UniProt P04578).
Assay [2] has as its target HIV env gp160 stably expressed on mouse melanoma B16 cells (gp160-B16) (HIV (strain not stated)).
Assay [3] concerns the target ErbB2 receptor on SKBR3 breast cancer cells (UniProt P04626).

Take “F105 (antibody Fab fragment against HIV envelope, lacking protamine)”: in assay [1], the reduction of HIV infection in primary CD4 T cells (p24 Ag ELISA of culture supernatants) came out at 30% and the reduction of HIV replication in infected primary CD4 cells (F105 + gag siRNA condition) lay in the range of 25 to 28%.
As to “F105-protamine (Fab fragment of human anti-HIV gp120 antibody F105, heavy chain fused at its C-terminus to full-length protamine) (from UniProt P04553 1-51)”, in assay [2], the uptake of FITC-siRNA by implanted tumor cells after intravenous injection (fluorescence microscopy) is 30 % of cells. In addition, in assay [1], the reduction of HIV infection in primary CD4 T cells (p24 Ag ELISA of culture supernatants) was 30%; the reduction of HIV replication in infected primary CD4 cells (F105-P + irrelevant GFP siRNA condition) fell in the range of 25 to 28%; the uptake of FITC-CD4 siRNA by an HIV IIIB-infected Jurkat culture, 24 h (flow cytometry) is 21 % of cells; the uptake of FITC-labeled siRNA by HIV-infected Jurkat cells (flow cytometry) (% of infected cells) was determined as 40.
Regarding “single chain ErbB2 antibody protamine fusion protein ML39 ScFv-P (from UniProt P04553 8-29)”, in assay [3], the delivery of FITC-siRNA into cells (flow cytometry) is 32 % of cells.
